In the NTF2 design screens of Basanta et al. (2020):

Test: protease stability score; higher = more stable; yeast display proteolysis, trypsin and chymotrypsin;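 further: relative to predicted unfolded state with 0 unfolded-like and 1 meaning tenfold more protease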

Sequence	protease stability score
DEKEEAARQIMTWLLEVLLTGDERLFEHNADPNVRIDVDGVDLVGMELFRHEVRRIDHMESRMRVRRVTVQGDKVRMEVEIEVTLFINGKEIRHRRESELIVLKIDGRWIIKSTHVK	1.56
DEKEEEMEIASELALHVWETGDPDEFLKLADPHVKIDFDGVDIHGMDKEHERWKRVKNLTMHIKRFSYQGDKVHLDVILIVNGRTETIHIIASKVNGRWLIKRVIINRR	1.37
DEKEEEYHRILREWMHWLLTGDWDKLLNNVDPHAKLTVNGREIHGMHLAVKLLVDTMRELRFHIEVKDTKVFNGVAFVDLRLHIHIGDKEHKNRSEVTLVIIDGRIHTIVIHDR	1.56
DEKEEEYKEMIRIMVEYLETGNEEDMNRLLDPHTKTEYHQGDKSDEFHGREEFMRLWQELGIDHFRVRDVDIVDGRVRIESELIVGDKRFNSYFFLIVVNGRATSASIHVE	2.27
DEKEEFMKKLSKLFVELWITGNEEIFNKLMDPNTRSDVNGVENIGRDEIIRFWKEWRRRFGIKHIEVEHVHAIGDKIEIHGIQKAENHHTEIHIRVNVVDGRIREVEVRTH	2.26
DEKEEFTRRFAQILIELWKTGDEEDMNNNMDPDVQNHSEFNGREVHLIGMELYVEHSEQWLNRVKNARIIWRHVDAQGDKILIHGDLIVNGKRIHVELDFYIVNGRIKSITIHER	2.02
DEKEEHFTTMMEIWLEIFRTGDWERLEKLMDPNVRHREVVDGRHLHLHGMENVSRLLHERENKLGANHIDLTHADIVNGRASIEGRVNYGDKRHKIRFDIHIVNGRVQHIQDIKI	-0.034
DEKEEHLDELARLFWEVHHTGNEEVFEELFDPRMRLIFNGQQYIGMEKAVKIESRVKNITVRLETYRVINGRIEIHENWRQGEKEIKFEIRIVVIDGVAKEMERIFREK	1.09
DEKEEHSKELVRLILRLILTGDEEILEDLMDPNVRANIDGREVHGWHEFVRILEKFLKEWRIHTTSLKRIRIIGDKAEVDLHEVGIVNGKKLEQDFHIHIEFVNGRLKEVHIEIR	1.69
DEKEEILRQIMELMLRLLLTGDEDRLTELIDPNVRVVFEGRTYHGMDEVTELWKEIRIDSFRFRDVKNVGDKARLHGEQKVRVGNYSHEHKSEYQLFVVNGRAKSLEIRWH	1.31
DEKEEILVDLFKHFLEAMLTGDEEQVNRLVDPNARHDIDGVEHHGWEFLEWFLSRVDHIELLEVKRVRNIDGRIEADLHIDITVNGKKERHDVEVHIVIIDGVFHSIKVIKH	2.23
DEKEELSKRAFERMLHWLETGDFDKFERYADPNVKTVIGDKYFIGRERVSRTVLHWLEVLGVDHRHVEDSDVHTFENHAVMDLHTRVHVDGQDREIRFILLVTKVNGRWNVTSIKIEIR	0.661
DEKEELTRKLLELLLLAWSTGDEEVLMMLADPDVRITQGDKITHGRDELRREIEEIWRKFGADHIEVEPEDSRVQGDKVNNRTTLWLRINGRTIDFNVHVIIVIVNGVIHSMRFEIR	2.35
DEKEELVEYFWEVFLKSLRTGNWHEFVKMFDPDAKSHINGVHSIGRDHIATLILREHEEIRYTEIRERHIEVQGDKIHVHTEVDMFVGDKRIRTERHIHITIVNGRIKSMRVEIR	0.958
DEKEETIERLIRMLWHAWRTGDEDSLRNLFDPHAKLHVDGRDLVGMEMVYEDFHRQLNEWRINDLVIRTFRVQGDKIEIKGEIFGDINGRHTRHEVIIHIVVVDGRIKSLEVIND	1.66
DEKEEVLEKLDRLVMEAMETGDWELITKNFDPNTRITINGRELIGRAEWHRFLEEMRHSIKDYRIRSKREYDGRIEVDTESHFIVNIDGKRIEYETRTHVIMTKIDGKWLFTSVEVR	1.97
DEKEHELTRMIRMIETLLRTGDFEELEKLMDPDVRLDIDGKHLVGRHDLREFFLELGVKHTDTKEIHVIGDKAFLHTEIHVDGRTTKVIIIMHKINGRWIITSTHIRHH	1.47
DEKEHFAKWFIHVLIRHWYTGDEETTHRLADPNARYEIGDKELIGMDELFRHLEQLRVDSIDYRVEDIRFQGEKIHIHGKIRVEGVVNGQHFHLTFDLILHVEKINGRWHFREMQTR	1.25
DEKEHLLKLAIDILKHLHETGDETLAEELADPNTRVHYGDKHIHGRQRYIEHLHRERRRLGVDHSQIELHNWEVVDGRLHLDGKLTLLVGDKRIEFKVRIIMDKVNGRWILHSLEFH	0.608
DEKEKDFHHMLEDWRWATRTGDEDTLKDLMDPNAKVRYGDYEFHGREHVIQFYQQIRFHEIHVHHVRVIGNKLEADTRVRIEYNGRELSFETHLVLLKIDGKWVMKIHEID	2.13
DEKEKEFKEVWKRILEILLTGDEEELTRMADPHARLDVNGVERHGREEMSKYIRHWHEKVKNARFWIHSIHVVGEKVVIDTEIQIGDKRIRYIVHFIVVDGRIKEIHVHEEII	2.12
DEKEKESEDLAEIILKLWATGDEEIFEHLLDPNVWMIDEDEVFHGMEKVSEFLLRLREKLGVDHFRVHHIEIQGDKVHMDIRLEVNGKILKTHIRVIIINGRIHTVEIRIH	2.37
DEKEKIVHEMFKLWVDLLLTGDEEILRRMLDPNTRLDFNGVDVIGMERIADHLRHWRFHDIRIEHMRVYNGRVEVETRLDGYWDGRRIRTTSHILLVVVGDKIKEIHIKID	2.38
DEKEKLKQLARKFHKAMQTGDEDELKKNVDENVRADYGDRRYHGSEELAKWLREMKTKVDHLSMTIKDIRVKGDRAEIELEMTFDHNGRQETRQFTLQAQVHNGSLKIVQIRQS	1.47
DEKEKVVRIAQEIINTIIHTGDERILEEFIDPNVRFYFNGQEFHGRELMSEIEKKHRDRFKNLRIFVEDTHVEVYGEWLRIKVHLRLEIGDKRHELHLDIIALKVNGRWLNKSAELRVE	1.64

Sequence	protease stability score
DEKERESEEFIRRFISVYETGDWKTMFELADPHTRMIDIVNGRDIEIIGREAIRHIFEERMRLLGIKHFHIDHSSRQGNKYHQKVTIRVDGQEIEAHVHVIVVDGVLKQIEVRSK	1.06
DEKERKLLEIARLLIESFLTGDWKTFHEMLDPHVRFEVGDKEAHGWEEALRVWDHLKEEMRITDLDIHHYTVQGDKVHIDSRLHGEIDGKRVTFRTRIVVIVVNGRVKQVSYKIT	1.23
DEKERLADEILEDIRKSVHTGDWDEYLRLLDPNVRTVINGKTVHGREEIKELMERLGIDHHHLRVDHWEIIDGKVHVEIEVTLQIGDKHFSRSSHILIMKFNGQWIVHTFRLH	1.73
DEKERLAHEFHERFLEALMTGDEHHIEEMFDPNARTRQGDKTFHGRERSLHLISEWWRQIDVVRDIHIHEIKFQGDFLSFHLMIDGEINGRRDELVVHVESRKIDGKWFLHSVTYT	0.497
DEKHEFARRYYELEKKYLKTGDEEEWLKYVDPHVRVHVGDKDLVGMELAEEQWREIRYHHIDDKDMRIQGDKLHVKGRVDGTIGDKRHRVDMEVHIEIIDGRFKRIEVRIK	0.76
DEKHEFVRRRIEEWLEALRTGDEDTLHRLADPNVKMNINGVERHGRESMLSLFEEFGVNHFHIRDVKIQGEKSFIDGEIRYGDKIHRVQMEIQVIDGVLESHKLRVH	1.13
DEKHEIMREALKEFITEQRTGNEDRIKQLMDPNVRIFVGDKEFHGREEVMRILKILRHELGVDNIFIILRSMHIVDGRVHLDVELHINGRIFKSELVILKIDGQWLIRSIHIE	1.66
DEKHELNEKALSEFLKIVHTGDERLVREMMDPHVRVHINGRDHHGMDDAVELMKFIKNMTVILTDKKIQGDKLEVHGIWIYNGVREETEIISEKVDGRWVIREVRHD	1.07
DEKHELTKRLVELFLHAMHTGNEDLLHEYMDPNVKLVVNGQEHHGRELANSVIRRMIEELRLKDSKIKDIEFQGEKVHLDVHLHFRQGDKHITLDARIILLKVDGRWVIESLIFH	1.76
DEKKAKEAAHRLLEAMVTGDPRKLNENADEDVQVEYGDKSYTGREKLNEWAHEFQKRVDHVRIESIHQRGDTATVKVRVEHNGETDTFVLIVEAHNGRAKRIRQETR	1.1
DEKKEDIDRMVKEIHTIFATGDEDRFKELLDPNVRVDVDGKKRHGREDATEHFRKWVLTLGIDHSRVHSVHTIDGVVFLEIRFDVNGQTIKVRVLAVKVDGQWLIEEVEIRWK	2.38
DEKNHLWDEISEIFVQNWVTGDEDSLRHMADPNVRTDINGVELHGMEETNRFIIEELKHARSRVHLEHRDAVNGRIHLQTELYSNVDGQEIRYKTRIILIVVNGRLKEIKFIQH	0.581
DEKQDLWRHLLEQFFRWYQTGDEDLLFKYADPHVRFRQGDKEHHGREEMIRMLREHRHHFGADHFKVETMEIQGDKATFVMHDHVNGVDIEIRVHVVVIDGRIRSFKFERH	1.34
DEKQEFIERIAKELLDSWLTGDEEHLRNMMDPHVRTDVNGREFHGREETIKAMQILGVDHLEIKDYRVINGRIHANSRMWIGDKQIETHLILRVVNGRVKEIKIEIR	1.97
DEKQRDIEEMARRFVEIFHTGDEENYLELADPDMRLDVGDKHYHGREDVHKWLHEELRRIKNATIRIKHIHVQGDKVHLEITIEIGDKHRKSHIHLQIVDGVIKRIEIRWS	1.09
DEKQVLELIRDVMKHVQNGNQEEVKKHGKPSVEVILFNERYTGPEALVRLAEFAQKLGAQFEYKETRHEGNKVKTKVEVTFGGTTVRYEVEVEAEGGKVVKWEVRASDEFDERVKKS	1.29
DEKREESERALNHLFKSMLTGDEEDVRKLADPHAKFIINGRSDIGRESVSHHWHRLWRELGVKHLDVRSFRVYDGRVDSKTRVEIGDKEHEMEVYIVKVNGRWHIEELEFR	-0.12
DEKRKEMEQLARIIIHLWETGDEEKWREYADPNTRLDVDGRNSHGMHNTLEVLRRRLEELGFDHVEMEIKHITVIGDKAQINGKVHLYWNGKTIDVPSEIIIVIINGRLHSIELRHE	1.44
DEKRKLAEEIMRLLLHAYKTGDEELIHKLADPDTRVIINGVDLHGWEEMNRHLEEIIRQFDHWDLKIRDFRIQGDKYHIHGHLIHIQGDKHIRHDVNFHIVFVNGRQTSNHIDIH	1.41
DEKRKVEERLLELIIEIFRTGDWEWYSELADPNVRVHQGEYHKHGREQASKHLLDELRHLGIKHIDERSYDVIDGQVYWHVRIEVGDKERQMHIRVRIVNGVLQHVHIEIH	1.17
DEKSDIYHQALRLWIDTMVTGDENLYERLLDPHVRVEIGDKEIHGRERVSEFFKRFAEHLGVDHVELHDFRYQGDYVRLRISIEYNGQHLDTDLIITKINGRWYIHSEKYK	1.26
DEKSEHILELLRLMLELLVTGDWSMLRKLVDPNARMYYGDKEFHGWEDMVKFIKILLERIDHVEIRLHNSDVQGEKAKSDGTLIERVNGQEVRFDSHIINIVVNGRAKEVRIEVH	1.22
DEKTEEIERFFKKWVEALRTGDWKTLMELLDPNARFDINGREIIGREIYVKILKEELKHFGVTRIHNEVEIKHSDEQGNKLNLDGKLIINWDGKNDETRLILYVLKVDGRWIIEEVRIR	1.44
DEKTEHERELSERLLKAILTGDEDLFKELADPNVRIISEIDGRKDESHGWTAWHRIMQSLGFNVMRIDHHELINGVQYVESTLDINGVRRKTHLIIRIINGKVKEVRFSID	1.88
DEKTEISEELLKIFVDLLQTGDEDIFQDMMDPRAQVHVNGKRIHGREHIIHWFREAHRHLGVKHTHIHRVEIQGEKVYIDGRLHYNGRDFNTHLIFDVINGRVKSMELRQH	1.09
